The labels stand for the following.
B1: ARC CARD domain (amino acids 1-95), wild type [human] / itself (parent)
chain: MGNAQERPSETIDRERKRLVETLQADSGLLLDALLARGVLTGPEYEALDALPDAERRVRRLLLLVQGKGEAACQELLRCAQRTAGAPDPAWDWQH

The variants in the assay derive from B1. Nature of the assay: SEC-MALS. The conditions noted are these: with itself.
Turning to MGNAQERPSETIDRERKRLVETLQADSGLLLDALLARGVLTGPEYEALDALPDAEERVERLLLLVQGKGEAACQELLRCAQRTAGAPDPAWDWQH, the screen value is 11.8 kDa.
In the case of MGNAQERPSETIDRERKRLVETLQADSGLLLDALLARGVLTGPEYEALRALPDAERRVRRLLLLVQGKGEAACQELLRCAQRTAGAPDPAWDWQH, the screen value turned out to be 13 kDa.
As to MGNAQERPSETIDRERKRLVETLQADSGLLLDALLARGVLTGPEYEALRALPDAERRVERLLLLVQGKGEAACQELLRCAQRTAGAPDPAWDWQH, the screen value amounted to 12.8 kDa.
On to MGNAQERPSETIDRERKRLVETLQADSGLLLDALLARGVLTGPEYEALDALPDAEERVRRLLLLVQGKGEAACQELLRCAQRTAGAPDPAWDWQH, for which the screen value came to 13.2 kDa.
With MGNAQERPSETIDRERKRLVETLQADSGLLLDALLARGVLTGPEYEALDALPDAERRVERLLLLVQGKGEAACQELLRCAQRTAGAPDPAWDWQH, the screen value was found to be 12 kDa.
